Source: patent publication US20200199241A1 (Chugai, published 2020)
Substitutions are numbered along the chain they refer to. Numbers in names are those of the source.

B1: GpH7-B3 P329H/GpL16-k0 (antibody, human IgG1)
heavy: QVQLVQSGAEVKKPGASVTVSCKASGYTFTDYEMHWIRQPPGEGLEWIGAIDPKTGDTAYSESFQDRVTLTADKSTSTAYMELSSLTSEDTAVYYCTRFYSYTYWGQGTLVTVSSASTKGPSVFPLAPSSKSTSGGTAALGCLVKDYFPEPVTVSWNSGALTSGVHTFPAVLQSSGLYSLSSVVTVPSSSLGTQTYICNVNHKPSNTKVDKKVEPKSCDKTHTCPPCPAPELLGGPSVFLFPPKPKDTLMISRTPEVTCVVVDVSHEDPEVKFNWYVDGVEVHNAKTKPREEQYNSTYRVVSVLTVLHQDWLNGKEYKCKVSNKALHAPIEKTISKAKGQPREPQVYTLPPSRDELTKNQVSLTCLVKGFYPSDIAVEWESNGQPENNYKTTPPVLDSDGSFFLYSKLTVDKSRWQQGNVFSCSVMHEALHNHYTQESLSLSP
light: DIVMTQSPLSLPVTPGEPASISCQASESLVHSNRNTYLHWYLQKPGQSPQLLIYKVSNRFSGVPDRFSGSGSGTDFTLKISRVEAEDVGVYYCSQNTHVPPTFGQGTKVEIE
notes: B3 variant; copies: 2 + 2
B2: GpH7-B3 P331G/GpL16-k0 (antibody, human IgG1)
heavy: not shown
light: B1 light
notes: B3 variant; copies: 2 + 2
B3: GpH7-B3 P329Q/GpL16-k0 (antibody, human IgG1)
heavy: not shown
light: B1 light
notes: B3 variant; copies: 2 + 2
B4: GpH7-B3 P329N/GpL16-k0 (antibody, human IgG1)
heavy: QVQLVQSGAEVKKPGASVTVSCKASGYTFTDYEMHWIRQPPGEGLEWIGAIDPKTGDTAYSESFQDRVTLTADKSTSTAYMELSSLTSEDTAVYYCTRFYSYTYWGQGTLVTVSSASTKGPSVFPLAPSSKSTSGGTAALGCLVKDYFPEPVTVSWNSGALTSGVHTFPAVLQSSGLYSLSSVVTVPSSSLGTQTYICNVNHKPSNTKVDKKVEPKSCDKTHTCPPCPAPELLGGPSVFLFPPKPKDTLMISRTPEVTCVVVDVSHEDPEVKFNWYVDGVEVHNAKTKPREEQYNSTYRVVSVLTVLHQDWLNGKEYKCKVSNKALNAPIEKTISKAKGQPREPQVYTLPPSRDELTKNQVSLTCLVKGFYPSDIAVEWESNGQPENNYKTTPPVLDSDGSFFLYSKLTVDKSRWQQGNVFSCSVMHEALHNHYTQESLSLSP
light: B1 light
notes: B3 variant; copies: 2 + 2
B5: GpH7-B3 P329S/GpL16-k0 (antibody, human IgG1)
heavy: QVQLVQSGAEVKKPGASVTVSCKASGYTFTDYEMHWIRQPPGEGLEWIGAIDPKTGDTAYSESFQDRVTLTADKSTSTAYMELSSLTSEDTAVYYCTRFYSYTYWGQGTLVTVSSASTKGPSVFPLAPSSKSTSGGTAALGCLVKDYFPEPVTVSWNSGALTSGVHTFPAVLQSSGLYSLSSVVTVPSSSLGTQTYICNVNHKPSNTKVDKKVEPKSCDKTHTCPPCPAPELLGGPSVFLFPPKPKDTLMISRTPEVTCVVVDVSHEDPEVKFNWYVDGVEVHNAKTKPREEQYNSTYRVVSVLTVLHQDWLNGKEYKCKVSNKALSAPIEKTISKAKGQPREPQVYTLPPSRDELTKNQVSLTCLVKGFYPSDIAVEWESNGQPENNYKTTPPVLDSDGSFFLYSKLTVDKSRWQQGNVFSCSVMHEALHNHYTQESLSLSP
light: B1 light
notes: B3 variant; copies: 2 + 2
B6: GpH7-B3 Q295R/GpL16-k0 (antibody, human IgG1)
heavy: not shown
light: B1 light
notes: B3 variant; copies: 2 + 2
B7: GpH7-B3 Q295Y/GpL16-k0 (antibody, human IgG1)
heavy: not shown
light: B1 light
notes: B3 variant; copies: 2 + 2
B8: GpH7-B3 Q295H/GpL16-k0 (antibody, human IgG1)
heavy: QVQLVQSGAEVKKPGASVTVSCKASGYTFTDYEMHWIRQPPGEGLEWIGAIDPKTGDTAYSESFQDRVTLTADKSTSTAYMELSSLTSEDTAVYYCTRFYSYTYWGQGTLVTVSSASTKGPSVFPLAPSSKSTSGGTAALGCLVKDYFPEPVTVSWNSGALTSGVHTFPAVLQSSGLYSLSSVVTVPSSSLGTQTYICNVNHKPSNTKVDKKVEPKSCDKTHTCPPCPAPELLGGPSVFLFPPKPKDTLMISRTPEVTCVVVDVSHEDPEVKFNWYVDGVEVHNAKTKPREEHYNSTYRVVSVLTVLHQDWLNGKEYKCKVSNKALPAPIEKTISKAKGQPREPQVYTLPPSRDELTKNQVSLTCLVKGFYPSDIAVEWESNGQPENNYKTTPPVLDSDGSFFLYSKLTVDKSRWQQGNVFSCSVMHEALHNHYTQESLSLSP
light: B1 light
notes: B3 variant; copies: 2 + 2
B9: GpH7-B3 P329Y/GpL16-k0 (antibody, human IgG1)
heavy: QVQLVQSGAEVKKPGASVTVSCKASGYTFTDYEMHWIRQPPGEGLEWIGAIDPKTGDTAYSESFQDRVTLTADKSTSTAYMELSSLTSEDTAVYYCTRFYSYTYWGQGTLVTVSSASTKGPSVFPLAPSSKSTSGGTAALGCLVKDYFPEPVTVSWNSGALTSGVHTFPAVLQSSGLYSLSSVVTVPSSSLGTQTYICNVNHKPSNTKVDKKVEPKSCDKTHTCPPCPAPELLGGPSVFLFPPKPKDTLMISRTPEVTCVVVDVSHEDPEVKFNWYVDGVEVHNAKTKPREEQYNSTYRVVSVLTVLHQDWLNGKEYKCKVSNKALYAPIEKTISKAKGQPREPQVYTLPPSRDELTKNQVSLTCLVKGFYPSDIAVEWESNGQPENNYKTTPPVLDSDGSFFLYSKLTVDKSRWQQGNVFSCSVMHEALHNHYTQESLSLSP
light: B1 light
notes: B3 variant; copies: 2 + 2
B10: GpH7-B3 P329T/GpL16-k0 (antibody, human IgG1)
heavy: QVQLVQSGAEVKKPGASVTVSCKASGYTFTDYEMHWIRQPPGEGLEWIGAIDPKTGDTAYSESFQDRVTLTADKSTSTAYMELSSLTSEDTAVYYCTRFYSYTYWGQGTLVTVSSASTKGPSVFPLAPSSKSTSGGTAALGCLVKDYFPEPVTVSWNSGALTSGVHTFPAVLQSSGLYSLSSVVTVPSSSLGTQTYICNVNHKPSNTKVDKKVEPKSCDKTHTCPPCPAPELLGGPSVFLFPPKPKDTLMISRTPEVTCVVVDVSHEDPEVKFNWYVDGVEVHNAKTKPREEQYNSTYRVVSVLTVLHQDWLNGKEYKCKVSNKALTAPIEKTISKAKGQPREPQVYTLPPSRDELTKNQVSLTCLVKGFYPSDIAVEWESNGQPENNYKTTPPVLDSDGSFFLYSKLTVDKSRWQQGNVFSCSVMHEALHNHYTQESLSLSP
light: B1 light
notes: B3 variant; copies: 2 + 2
B11: GpH7-B3 P329I/GpL16-k0 (antibody, human IgG1)
heavy: not shown
light: B1 light
notes: B3 variant; copies: 2 + 2
B12: GpH7-B3 Q295W/GpL16-k0 (antibody, human IgG1)
heavy: not shown
light: B1 light
notes: B3 variant; copies: 2 + 2
B13: GpH7-B3 S298P/GpL16-k0 (antibody, human IgG1)
heavy: not shown
light: B1 light
notes: B3 variant; copies: 2 + 2
B14: GpH7-B3 P329M/GpL16-k0 (antibody, human IgG1)
heavy: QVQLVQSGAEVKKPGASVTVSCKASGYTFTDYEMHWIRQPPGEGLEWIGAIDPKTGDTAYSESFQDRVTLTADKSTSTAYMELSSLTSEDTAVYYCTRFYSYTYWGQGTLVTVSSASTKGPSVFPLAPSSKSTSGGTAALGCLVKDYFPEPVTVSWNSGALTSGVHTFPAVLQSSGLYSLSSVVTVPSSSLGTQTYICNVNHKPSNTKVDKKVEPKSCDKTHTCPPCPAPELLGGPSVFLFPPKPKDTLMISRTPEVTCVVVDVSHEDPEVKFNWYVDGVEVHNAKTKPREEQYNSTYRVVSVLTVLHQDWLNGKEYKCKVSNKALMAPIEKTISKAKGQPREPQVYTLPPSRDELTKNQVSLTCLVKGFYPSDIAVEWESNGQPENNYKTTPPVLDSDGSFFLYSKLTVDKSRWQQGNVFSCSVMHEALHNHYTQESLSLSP
light: B1 light
notes: B3 variant; copies: 2 + 2
B15: GpH7-B3 P329L/GpL16-k0 (antibody, human IgG1)
heavy: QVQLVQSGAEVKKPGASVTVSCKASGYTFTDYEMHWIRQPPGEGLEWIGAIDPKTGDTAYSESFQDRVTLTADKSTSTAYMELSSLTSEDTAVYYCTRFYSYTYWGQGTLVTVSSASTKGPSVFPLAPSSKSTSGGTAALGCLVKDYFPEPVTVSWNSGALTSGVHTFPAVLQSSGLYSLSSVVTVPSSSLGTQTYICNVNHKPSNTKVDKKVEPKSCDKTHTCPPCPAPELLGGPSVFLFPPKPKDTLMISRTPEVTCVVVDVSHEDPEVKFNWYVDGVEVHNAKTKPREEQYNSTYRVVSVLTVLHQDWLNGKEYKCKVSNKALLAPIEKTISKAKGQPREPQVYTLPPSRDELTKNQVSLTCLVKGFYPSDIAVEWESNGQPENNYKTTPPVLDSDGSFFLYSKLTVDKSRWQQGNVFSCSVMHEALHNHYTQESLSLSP
light: B1 light
notes: B3 variant; copies: 2 + 2
B16: GpH7-B3 P331R/GpL16-k0 (antibody, human IgG1)
heavy: not shown
light: B1 light
notes: B3 variant; copies: 2 + 2
B17: GpH7-B3 P331K/GpL16-k0 (antibody, human IgG1)
heavy: not shown
light: B1 light
notes: B3 variant; copies: 2 + 2
B18: GpH7-B3 Q295G/GpL16-k0 (antibody, human IgG1)
heavy: not shown
light: B1 light
notes: B3 variant; copies: 2 + 2
B19: GpH7-B3 S298K/GpL16-k0 (antibody, human IgG1)
heavy: not shown
light: B1 light
notes: B3 variant; copies: 2 + 2
B20: GpH7-B3 Q295S/GpL16-k0 (antibody, human IgG1)
heavy: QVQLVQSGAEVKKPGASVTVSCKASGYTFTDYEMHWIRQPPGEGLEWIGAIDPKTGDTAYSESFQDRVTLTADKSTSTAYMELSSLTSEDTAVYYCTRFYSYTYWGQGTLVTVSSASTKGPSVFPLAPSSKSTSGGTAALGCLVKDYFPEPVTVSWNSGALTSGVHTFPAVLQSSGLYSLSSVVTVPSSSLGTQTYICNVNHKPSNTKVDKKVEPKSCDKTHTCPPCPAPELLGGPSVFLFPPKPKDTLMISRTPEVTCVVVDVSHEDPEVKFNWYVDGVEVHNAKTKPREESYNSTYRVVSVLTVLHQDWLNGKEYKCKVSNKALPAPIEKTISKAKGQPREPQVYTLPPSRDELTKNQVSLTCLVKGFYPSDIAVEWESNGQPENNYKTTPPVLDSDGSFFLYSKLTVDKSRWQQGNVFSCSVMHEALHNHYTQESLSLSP
light: B1 light
notes: B3 variant; copies: 2 + 2
B21: GpH7-B3 Q295F/GpL16-k0 (antibody, human IgG1)
heavy: not shown
light: B1 light
notes: B3 variant; copies: 2 + 2
B22: GpH7-B3 P329W/GpL16-k0 (antibody, human IgG1)
heavy: not shown
light: B1 light
notes: B3 variant; copies: 2 + 2
B23: GpH7-B3 Q295D/GpL16-k0 (antibody, human IgG1)
heavy: not shown
light: B1 light
notes: B3 variant; copies: 2 + 2
B24: GpH7-B3 P329V/GpL16-k0 (antibody, human IgG1)
heavy: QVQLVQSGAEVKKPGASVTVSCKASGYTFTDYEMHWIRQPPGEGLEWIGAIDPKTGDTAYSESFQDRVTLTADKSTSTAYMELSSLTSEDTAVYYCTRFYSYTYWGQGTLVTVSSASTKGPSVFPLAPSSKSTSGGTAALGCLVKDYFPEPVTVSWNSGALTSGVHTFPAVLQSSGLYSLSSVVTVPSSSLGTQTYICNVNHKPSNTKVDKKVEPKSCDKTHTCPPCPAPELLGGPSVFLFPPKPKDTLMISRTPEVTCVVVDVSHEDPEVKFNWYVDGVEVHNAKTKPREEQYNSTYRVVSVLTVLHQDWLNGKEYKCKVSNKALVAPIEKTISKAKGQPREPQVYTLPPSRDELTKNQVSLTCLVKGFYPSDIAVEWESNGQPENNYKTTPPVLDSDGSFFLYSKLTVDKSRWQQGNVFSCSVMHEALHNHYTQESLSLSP
light: B1 light
notes: B3 variant; copies: 2 + 2
B25: GpH7-B3 P329R/GpL16-k0 (antibody, human IgG1)
heavy: not shown
light: B1 light
notes: B3 variant; copies: 2 + 2
B26: GpH7-B3 S298G/GpL16-k0 (antibody, human IgG1)
heavy: not shown
light: B1 light
notes: B3 variant; copies: 2 + 2
B27: GpH7-B3 Q295N/GpL16-k0 (antibody, human IgG1)
heavy: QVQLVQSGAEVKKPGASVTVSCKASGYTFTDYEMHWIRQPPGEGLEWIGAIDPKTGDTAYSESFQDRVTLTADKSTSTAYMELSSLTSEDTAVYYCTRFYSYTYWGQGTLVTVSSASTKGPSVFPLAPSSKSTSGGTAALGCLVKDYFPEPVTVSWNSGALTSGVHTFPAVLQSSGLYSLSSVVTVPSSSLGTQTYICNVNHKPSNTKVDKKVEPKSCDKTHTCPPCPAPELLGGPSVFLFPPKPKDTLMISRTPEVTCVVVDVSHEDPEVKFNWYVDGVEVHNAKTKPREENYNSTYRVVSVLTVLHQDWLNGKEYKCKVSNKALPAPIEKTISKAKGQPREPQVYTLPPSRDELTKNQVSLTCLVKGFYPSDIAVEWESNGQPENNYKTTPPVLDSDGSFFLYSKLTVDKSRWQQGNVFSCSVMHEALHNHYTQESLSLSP
light: B1 light
notes: B3 variant; copies: 2 + 2

target: T1, human FcγRIa (human, UniProt P12314 16-292, limits assumed); test: SPR, captured antibody;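 further: antibody captured on a sensor chip, Fcγ receptor flowed over at 25 °C, receptor binding normalized to the captured antibody amount and expressed relative to the reference antibody ×100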
T1 construct: also called FcgRIa; hFcgRIa
Experimental: (§1) Interaction between each modified antibody and Fcγ receptor prepared in the manner described above was analyzed using the BIACORE™ T100 surface plasmon resonance system (GE Healthcare), BIACORE™ T200 surface plasmon resonance system (GE Healthcare), BIACORE™ A100 surface plasmon resonance system or BIACORE™ 4000 surface plasmon resonance system. HBS-EP+ (GE Healthcare) was used for the running buffer, and measurements were carried out at 25° C. The chips used were chips in which antigen peptides, Protein A (Thermo Scientific), Protein A/G (Thermo Scientific) or Protein L (ACTIGEN® protein (Alltech or BioVision) were immobilized on the Series S Sensor Chip CMS (GE Healthcare) or Series S Sensor Chip CM4 (GE Healthcare) by amine coupling, or chips in which preliminarily biotinylated antigen peptides were allowed to interact and then immobilized on the Series S Sensor Chip SA (certified) (GE Healthcare). The target antibodies were captured on these sensor chips, Fcγ receptor diluted with the running buffer was allowed to interact, followed by measurement of the amount of bound antibody. The amounts bound were compared between antibodies. However, since the amount of Fcγ receptor bound depends on the amount of captured antibody, the values used for comparison were first corrected by dividing the amount of Fcγ receptor bound by the captured amount of each antibody. Through reaction with 10 mM glycine-HCl at pH 1.5, the sensor chips were regenerated by washing off antibody captured on the sensor chips and used repeatedly.
(§2) Binding strength was evaluated according to the following method based on the results of analyzing the interaction with each FcγR. […] That value was then further multiplied by 100, and the resulting value was used as an indicator of relative binding activity to each FcγR.

Binder	relative binding activity
B1	50 % of GpH7-B3/GpL16-k0
B2	88 % of GpH7-B3/GpL16-k0
B3	43 % of GpH7-B3/GpL16-k0
B4	45 % of GpH7-B3/GpL16-k0
B5	60 % of GpH7-B3/GpL16-k0
B6	100 % of GpH7-B3/GpL16-k0
B7	95 % of GpH7-B3/GpL16-k0
B8	97 % of GpH7-B3/GpL16-k0
B9	76 % of GpH7-B3/GpL16-k0
B10	43 % of GpH7-B3/GpL16-k0
B11	89 % of GpH7-B3/GpL16-k0
B12	81 % of GpH7-B3/GpL16-k0
B13	15 % of GpH7-B3/GpL16-k0
B14	69 % of GpH7-B3/GpL16-k0
B15	68 % of GpH7-B3/GpL16-k0
B16	95 % of GpH7-B3/GpL16-k0
B17	98 % of GpH7-B3/GpL16-k0
B18	89 % of GpH7-B3/GpL16-k0
B19	88 % of GpH7-B3/GpL16-k0
B20	100 % of GpH7-B3/GpL16-k0
B21	99 % of GpH7-B3/GpL16-k0
B22	94 % of GpH7-B3/GpL16-k0
B23	95 % of GpH7-B3/GpL16-k0
B24	95 % of GpH7-B3/GpL16-k0
B25	9 % of GpH7-B3/GpL16-k0
B26	100 % of GpH7-B3/GpL16-k0
B27	99 % of GpH7-B3/GpL16-k0

Target: T2, human FcγRIIa(R) (human, UniProt P12318 36-217)
T2 construct: also called FcgRIIaR; hFcgRIIa(R)
T2 chain: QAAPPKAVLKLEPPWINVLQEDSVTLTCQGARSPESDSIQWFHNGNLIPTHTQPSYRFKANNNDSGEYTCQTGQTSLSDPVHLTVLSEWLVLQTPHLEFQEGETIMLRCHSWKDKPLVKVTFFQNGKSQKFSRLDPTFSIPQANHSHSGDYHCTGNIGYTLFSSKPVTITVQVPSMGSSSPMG
Test: SPR, captured antibody;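 further: antibody captured on a sensor chip, Fcγ receptor flowed over at 25 °C, receptor binding normalized to the captured antibody amount and expressed relative to the reference antibody ×100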
Experimental: as §1, §2

Binder	relative binding activity
B1	-1 % of GpH7-B3/GpL16-k0
B2	13 % of GpH7-B3/GpL16-k0
B3	-1 % of GpH7-B3/GpL16-k0
B4	4 % of GpH7-B3/GpL16-k0
B5	0 % of GpH7-B3/GpL16-k0
B6	61 % of GpH7-B3/GpL16-k0
B7	38 % of GpH7-B3/GpL16-k0
B8	45 % of GpH7-B3/GpL16-k0
B9	-1 % of GpH7-B3/GpL16-k0
B10	-2 % of GpH7-B3/GpL16-k0
B11	22 % of GpH7-B3/GpL16-k0
B12	26 % of GpH7-B3/GpL16-k0
B13	0 % of GpH7-B3/GpL16-k0
B14	2 % of GpH7-B3/GpL16-k0
B15	2 % of GpH7-B3/GpL16-k0
B16	64 % of GpH7-B3/GpL16-k0
B17	72 % of GpH7-B3/GpL16-k0
B18	36 % of GpH7-B3/GpL16-k0
B19	79 % of GpH7-B3/GpL16-k0
B20	52 % of GpH7-B3/GpL16-k0
B21	46 % of GpH7-B3/GpL16-k0
B22	1 % of GpH7-B3/GpL16-k0
B23	43 % of GpH7-B3/GpL16-k0
B24	24 % of GpH7-B3/GpL16-k0
B25	-2 % of GpH7-B3/GpL16-k0
B26	89 % of GpH7-B3/GpL16-k0
B27	56 % of GpH7-B3/GpL16-k0

target: T3, human FcγRIIa(H) (human, UniProt P12318 36-217); test: SPR, captured antibody;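 further: antibody captured on a sensor chip, Fcγ receptor flowed over at 25 °C, receptor binding normalized to the captured antibody amount and expressed relative to the reference antibody ×100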
T3 construct: also called FcgRIIaH; hFcgRIIa(H)
T3 sequence: T2 chain with R133H
Experimental: as §1, §2

Binder	relative binding activity
B1	0 % of GpH7-B3/GpL16-k0
B2	9 % of GpH7-B3/GpL16-k0
B3	0 % of GpH7-B3/GpL16-k0
B4	5 % of GpH7-B3/GpL16-k0
B5	1 % of GpH7-B3/GpL16-k0
B6	94 % of GpH7-B3/GpL16-k0
B7	70 % of GpH7-B3/GpL16-k0
B8	78 % of GpH7-B3/GpL16-k0
B9	0 % of GpH7-B3/GpL16-k0
B10	0 % of GpH7-B3/GpL16-k0
B11	21 % of GpH7-B3/GpL16-k0
B12	38 % of GpH7-B3/GpL16-k0
B13	0 % of GpH7-B3/GpL16-k0
B14	2 % of GpH7-B3/GpL16-k0
B15	2 % of GpH7-B3/GpL16-k0
B16	59 % of GpH7-B3/GpL16-k0
B17	58 % of GpH7-B3/GpL16-k0
B18	41 % of GpH7-B3/GpL16-k0
B19	38 % of GpH7-B3/GpL16-k0
B20	67 % of GpH7-B3/GpL16-k0
B21	74 % of GpH7-B3/GpL16-k0
B22	0 % of GpH7-B3/GpL16-k0
B23	37 % of GpH7-B3/GpL16-k0
B24	28 % of GpH7-B3/GpL16-k0
B25	-1 % of GpH7-B3/GpL16-k0
B26	43 % of GpH7-B3/GpL16-k0
B27	74 % of GpH7-B3/GpL16-k0

target: T4, human FcγRIIb (human, UniProt P31994 43-217, limits assumed); test: SPR, captured antibody;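 further: antibody captured on a sensor chip, Fcγ receptor flowed over at 25 °C, receptor binding normalized to the captured antibody amount and expressed relative to the reference antibody ×100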
T4 construct: also called FcgRIIb; hFcgRIIb
T4 sequence: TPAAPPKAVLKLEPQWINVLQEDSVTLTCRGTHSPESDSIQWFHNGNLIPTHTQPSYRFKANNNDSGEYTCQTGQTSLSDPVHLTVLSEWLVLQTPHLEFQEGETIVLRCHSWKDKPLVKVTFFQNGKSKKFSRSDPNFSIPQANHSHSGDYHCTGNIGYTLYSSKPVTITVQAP
Experimental: as §1, §2

Binder	relative binding activity
B1	-3 % of GpH7-B3/GpL16-k0
B2	8 % of GpH7-B3/GpL16-k0
B3	-2 % of GpH7-B3/GpL16-k0
B4	0 % of GpH7-B3/GpL16-k0
B5	-1 % of GpH7-B3/GpL16-k0
B6	46 % of GpH7-B3/GpL16-k0
B7	24 % of GpH7-B3/GpL16-k0
B8	29 % of GpH7-B3/GpL16-k0
B9	-3 % of GpH7-B3/GpL16-k0
B10	-4 % of GpH7-B3/GpL16-k0
B11	13 % of GpH7-B3/GpL16-k0
B12	16 % of GpH7-B3/GpL16-k0
B13	-1 % of GpH7-B3/GpL16-k0
B14	0 % of GpH7-B3/GpL16-k0
B15	1 % of GpH7-B3/GpL16-k0
B16	55 % of GpH7-B3/GpL16-k0
B17	63 % of GpH7-B3/GpL16-k0
B18	28 % of GpH7-B3/GpL16-k0
B19	34 % of GpH7-B3/GpL16-k0
B20	40 % of GpH7-B3/GpL16-k0
B21	30 % of GpH7-B3/GpL16-k0
B22	0 % of GpH7-B3/GpL16-k0
B23	40 % of GpH7-B3/GpL16-k0
B24	13 % of GpH7-B3/GpL16-k0
B25	-3 % of GpH7-B3/GpL16-k0
B26	68 % of GpH7-B3/GpL16-k0
B27	41 % of GpH7-B3/GpL16-k0
